The values below come from PMC7831021 (2021).

A word on the Kd: it is a measure of binding affinity in units of concentration. High values mean a looser complex, low ones a tighter complex.

Bridges are numbered along the chain shown (N, C = ends). Where no end group is shown, it is not given here.

In this assay the target is beta-2-microglobulin (Homo sapiens, UniProt P61769). The assay can be described thus: SPR. (Surface plasmon resonance follows binding to a sensor surface in real time, without labels.)
beta-2-microglobulin, sequence (P61769 22-119): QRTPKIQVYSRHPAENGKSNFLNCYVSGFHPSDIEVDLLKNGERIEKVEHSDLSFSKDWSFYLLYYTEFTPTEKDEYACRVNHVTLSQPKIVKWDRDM

For the molecule CFETAWRQNEWC (disulfide 1-12 (inferred)) [pep331], the Kd is 300 µM.
